Laboratory results: PMC3867821

Target: KLF4 (UniProt Q60793)
Assay: anti-HA co-IP, STAT3 blot
Details: reference: wild-type FLAG-STAT3; sites Y705

binding against the reference: lost
Substance: STAT3 (from UniProt P42227) Y705F
